Data: article PMC3360035 (PLoS ONE, 2012)

Target: Human γD-crystallin I90F (human, UniProt P07320 1-174, I90F)
Experiment: cell-based or functional assay

B1: αB-crystallin, wild type (natural protein, UniProt P02511 1-175, looked up)
chain: MDIAIHHPWIRRPFFPFHSPSRLFDQFFGEHLLESDLFPTSTSLSPFYLRPPSFLRAPSWFDTGLSEMRLEKDRFSVNLDVKHFSPEELKVKVLGDVIEVHGKHEERQDEHGFISREFHRKYRIPADVDPLTITSSLSSDGVLTVNGPRKQVSGPERTIPITREEKPAVTAAPKK
B1 was tested, and the “suppression of aggregation on dilution out of 5 M GdnHCl (from maximum A350), αB in 5-fold molar excess” value was 70%.
